B1: F-box protein MET30 (Saccharomyces cerevisiae), P39014 (parent)
chain: MRRERQRMMSFEDKDKDDLDNSNSNNSSEMTDTAMMPPLKRLLITGSSDDLAQGSSGKKKMTMATRSPSSSPDLATNDSGTRVQPLPEYNFTKFCYRHNPDIQFSPTHTACYKQDLKRTQEINANIAKLPLQEQSDIHHIISKYSNSNDKIRKLILDGILSTSCFPQLSYISSLVTHMIKIDFISILPQELSLKILSYLDCQSLCNATRVCRKWQKLADDDRVWYHMCEQHIDRKCPNCGWGLPLLHMKRARIQQNSTGSSSNADIQTQTTRPWKVIYRERFKVESNWRKGHCRIQEFKGHMDGVLTLQFNYRLLFTGSYDSTIGIWDLFTGKLIRRLSGHSDGVKTLYFDDRKLITGSLDKTIRVWNYITGECISTYRGHSDSVLSVDSYQKVIVSGSADKTVKVWHVESRTCYTLRGHTEWVNCVKLHPKSFSCFSCSDDTTIRMWDIRTNSCLKVFRGHVGQVQKIIPLTIKDVENLATDNTSDGSSPQDDPTMTDGADESDTPSNEQETVLDENIPYPTHLLSCGLDNTIKLWDVKTGKCIRTQFGHVEGVWDIAADNFRIISGSHDGSIKVWDLQSGKCMHTFNGRRLQRETQHTQTQSLGDKVAPIACVCIGDSECFSGDEFGCVKMYKFDLND
partner: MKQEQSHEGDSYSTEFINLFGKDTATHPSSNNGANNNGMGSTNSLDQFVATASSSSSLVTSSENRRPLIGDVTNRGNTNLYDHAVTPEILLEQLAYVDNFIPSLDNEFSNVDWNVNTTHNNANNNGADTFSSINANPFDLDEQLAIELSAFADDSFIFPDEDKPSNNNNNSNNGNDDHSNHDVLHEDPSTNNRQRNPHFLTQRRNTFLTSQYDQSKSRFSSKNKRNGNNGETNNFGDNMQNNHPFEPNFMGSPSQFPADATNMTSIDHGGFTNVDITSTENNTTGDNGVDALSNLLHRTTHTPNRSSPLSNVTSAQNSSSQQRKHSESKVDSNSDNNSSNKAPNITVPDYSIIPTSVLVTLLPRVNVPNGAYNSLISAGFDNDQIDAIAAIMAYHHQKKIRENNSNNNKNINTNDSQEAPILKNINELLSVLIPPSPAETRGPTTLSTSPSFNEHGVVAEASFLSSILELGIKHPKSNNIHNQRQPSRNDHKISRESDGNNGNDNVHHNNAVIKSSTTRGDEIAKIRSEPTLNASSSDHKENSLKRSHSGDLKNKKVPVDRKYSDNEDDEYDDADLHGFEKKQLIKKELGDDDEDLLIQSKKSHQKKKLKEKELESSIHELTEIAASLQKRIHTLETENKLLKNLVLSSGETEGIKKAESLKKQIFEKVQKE

Variants of: B1
Conditions: with met4_yeast MET4, P32389

| Variant | effect of a mutation on the interaction |
| --- | --- |
| L386D;N425A;Q467A;L530D | decreasing interaction |

Source: IntAct's records for PubMed 15883825
